Laboratory results taken from patent US11578136B2, “Compositions and methods for treating cancer” (INNATE PHARMA, priority 2017, dated 2023).

Tests used:
[1] = target: T1, CHO cells expressing murine CD39 (Mus musculus, UniProt P55772); assay: Antibody titration on CHO-moCD39 by flow cytometry; type: binding; conditions: result in words
T1 construct: expressed in transfected cells; host or cells: CHO cells
T1 sequence (P55772 1-510): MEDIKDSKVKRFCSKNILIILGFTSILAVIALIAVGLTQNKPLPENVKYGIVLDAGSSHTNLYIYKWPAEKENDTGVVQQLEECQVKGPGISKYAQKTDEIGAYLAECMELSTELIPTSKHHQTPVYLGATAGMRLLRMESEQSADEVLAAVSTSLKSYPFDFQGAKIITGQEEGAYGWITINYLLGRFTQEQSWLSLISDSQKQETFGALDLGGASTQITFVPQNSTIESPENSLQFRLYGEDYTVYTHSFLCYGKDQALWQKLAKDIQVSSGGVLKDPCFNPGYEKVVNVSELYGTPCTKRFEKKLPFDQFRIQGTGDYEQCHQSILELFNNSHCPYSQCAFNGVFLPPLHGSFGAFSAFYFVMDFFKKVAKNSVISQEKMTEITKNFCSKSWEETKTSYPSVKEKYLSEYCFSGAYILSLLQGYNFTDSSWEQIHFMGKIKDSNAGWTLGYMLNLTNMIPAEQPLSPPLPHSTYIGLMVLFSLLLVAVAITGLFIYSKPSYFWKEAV
Description: Antibody I-394 was tested in two repeated experiments for binding to CHO cells expressing human CD39, CHO cells expressing cynomolgus (Macaca fascicularis) CD39, CHO cells expressing murine CD39, and human Ramos lymphoma cells (ATCC™, reference CRL-1596). Cells were incubated with various concentration of unlabeled anti-CD39 antibody from 30 μg/ml to 5×10^−4 μg/ml, for 30 minutes at 4° C. After washes, cells were incubated with Goat anti-mouse H+L labeled secondary antibody for 30 min at 4° C.

cell-membrane bound CD39 = target: T2, cell-membrane bound CD39 (Homo sapiens, UniProt P49961); assay: Inhibition of the enzymatic activity of cellular CD39 (cells not specified); type: cell-based
T2 sequence (P49961 1-510): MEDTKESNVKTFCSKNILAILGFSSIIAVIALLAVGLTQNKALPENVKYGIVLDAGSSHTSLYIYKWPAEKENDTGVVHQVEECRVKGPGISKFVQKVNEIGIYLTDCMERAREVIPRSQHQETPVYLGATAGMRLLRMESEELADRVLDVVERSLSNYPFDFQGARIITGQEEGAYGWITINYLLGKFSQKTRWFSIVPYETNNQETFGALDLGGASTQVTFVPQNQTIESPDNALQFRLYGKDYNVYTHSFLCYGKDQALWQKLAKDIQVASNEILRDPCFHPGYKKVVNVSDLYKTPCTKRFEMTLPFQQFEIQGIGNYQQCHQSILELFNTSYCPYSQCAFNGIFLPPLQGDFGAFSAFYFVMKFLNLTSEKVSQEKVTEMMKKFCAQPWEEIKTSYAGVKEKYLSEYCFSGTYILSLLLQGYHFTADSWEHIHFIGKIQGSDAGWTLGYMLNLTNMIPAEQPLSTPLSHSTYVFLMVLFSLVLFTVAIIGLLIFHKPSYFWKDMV
Description: The inhibition of the CD39 enzymatic activity in CD39-expressing cells by antibodies was evaluated using Cell Titer Glo™ (Promega, reference G7571) that allows assessment of ATP hydrolysis through use of a reagent that generates a luminescent signal proportional to the amount of ATP present. The assay was thus designed to permit assessment of the inhibition of ATP hydrolyzed by CD39 in the cell culture supernatant. Briefly, 5×10^4 Ramos human lymphoma cells, 5×10^3 human CD39-, cynomolgus CD39- and mouse CD39-expressing CHO cells, were incubated 1 hour at 37° C. with anti-CD39 antibodies from 30 μg/ml to […]. Cells were then incubated with 20 μM ATP for 1 additional hour at 37° C. Plates were centrifuged for 2 min at 400 g and 50 μl cell supernatant are transferred in a luminescence microplate (white wells). 50 μl CellTiter-Glo® Reagent (CTG) was added to the supernatant and emitted light was quantified after a 5 min incubation in the dark using a Enspire™ luminometer. Anti-CD39 antibody efficacy was determined by comparing emitted light in presence of antibody with ATP alone (maximal light emission) and ATP together with cells (minimal light emission).
The two antibodies that have been reported to inhibit the ATPase activity of CD39 in cellular assays (BY40 and BY12) were assessed to determine whether are able to inhibit the ATPase activity of recombinant soluble CD39 protein. […]

- binding to cells expressing murine CD39 (CHO-moCD39) [1]: not
- potency and maximal inhibition of cellular CD39 compared to BY40 (FIG. 2A) (cell-membrane bound CD39; compared to BY40): greater potency and maximal inhibition
- inhibition of ATPase activity of CD39 protein in cells / cell-membrane bound CD39 (cell-membrane bound CD39; result in words): inhibit
Substance: I-394: anti-CD39 antibody, VH SEQ ID NO: 6, VL SEQ ID NO: 7; human IgG1 Fc with L234A/L235E/G237A/A330S/P331S
